Measured values published in US20260167699A1 (Chugai, published 2026).
Positions count from the first letter of the chain named.

T1: FcγRIIb extracellular domain, C-terminal His tag (human, UniProt P31994 43-217)
T1 construct: extracellular domain; also called 2b
T1 sequence: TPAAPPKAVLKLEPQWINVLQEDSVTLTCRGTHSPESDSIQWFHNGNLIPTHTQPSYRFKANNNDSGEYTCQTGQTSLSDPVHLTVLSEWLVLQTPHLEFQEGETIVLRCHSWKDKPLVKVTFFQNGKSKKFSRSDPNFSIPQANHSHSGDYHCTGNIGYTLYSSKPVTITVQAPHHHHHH

T2: FcγRIIa(H) extracellular domain, C-terminal His tag (human, UniProt P12318 34-217)
T2 construct: extracellular domain; Allotype H131; also called 2aH
T2 sequence: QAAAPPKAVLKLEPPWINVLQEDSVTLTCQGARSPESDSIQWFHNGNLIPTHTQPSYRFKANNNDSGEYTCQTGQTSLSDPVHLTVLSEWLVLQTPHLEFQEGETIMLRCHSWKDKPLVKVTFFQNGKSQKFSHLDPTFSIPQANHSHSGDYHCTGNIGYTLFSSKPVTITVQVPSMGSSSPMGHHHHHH

T3: FcγRIIa(R) extracellular domain, C-terminal His tag (human, UniProt P12318 34-217)
T3 construct: extracellular domain; Allotype R131; also called 2aR
T3 sequence: T2 sequence with H134R

B1: GpH7-A5/GpH7-B3 variant P329_09D/GpL16-k0 (antibody, human IgG1, kappa)
heavy 1: not shown
heavy 2: not shown
light: DIVMTQSPLSLPVTPGEPASISCQASESLVHSNRNTYLHWYLQKPGQSPQLLIYKVSNRFSGVPDRFSGSGSGTDFTLKISRVEAEDVGVYYCSQNTHVPPTFGQGTKVEIERTVAAPSVFIFPPSDEQLKSGTASVVCLLNNFYPREAKVQWKVDNALQSGNSQESVTEQDSKDSTYSLSSTLTLSKADYEKHKVYACEVTHQGLSSPVTKSFNRGEC
notes: He Ab: anti-glypican 3 IgG1 heterodimer, only the GpH7-B3 chain mutated; position in EU numbering; also called He Ab
B2: GpH7-A5/GpH7-B3 variant P331_10E/GpL16-k0 (antibody, human IgG1, kappa)
heavy 1: not shown
heavy 2: not shown
light: B1 light
notes: as for B1
B3: GpH7-A5/GpH7-B3 variant P331_06M/GpL16-k0 (antibody, human IgG1, kappa)
heavy 1: not shown
heavy 2: not shown
light: B1 light
notes: as for B1
B4: GpH7-A5/GpH7-B3 variant P331_14T/GpL16-k0 (antibody, human IgG1, kappa)
heavy 1: not shown
heavy 2: not shown
light: B1 light
notes: as for B1
B5: GpH7-A5/GpH7-B3 variant P331_13S/GpL16-k0 (antibody, human IgG1, kappa)
heavy 1: not shown
heavy 2: not shown
light: B1 light
notes: as for B1
B6: GpH7-A5/GpH7-B3 variant P331_02A/GpL16-k0 (antibody, human IgG1, kappa)
heavy 1: not shown
heavy 2: not shown
light: B1 light
notes: as for B1
B7: GpH7-A5/GpH7-B3 variant P331_04F/GpL16-k0 (antibody, human IgG1, kappa)
heavy 1: not shown
heavy 2: not shown
light: B1 light
notes: as for B1
B8: GpH7-A5/GpH7-B3 variant P331_15Y/GpL16-k0 (antibody, human IgG1, kappa)
heavy 1: not shown
heavy 2: not shown
light: B1 light
notes: He Ab: anti-glypican 3 IgG1 heterodimer, only the GpH7-B3 chain mutated; position in EU numbering; also called P331_I5Y; He Ab
B9: GpH7-A5/GpH7-B3 variant P331_09D/GpL16-k0 (antibody, human IgG1, kappa)
heavy 1: not shown
heavy 2: not shown
light: B1 light
notes: as for B1
B10: GpH7-A5/GpH7-B3 variant P331_07I/GpL16-k0 (antibody, human IgG1, kappa)
heavy 1: not shown
heavy 2: not shown
light: B1 light
notes: as for B1
B11: GpH7-A5/GpH7-B3 variant P331_11K/GpL16-k0 (antibody, human IgG1, kappa)
heavy 1: not shown
heavy 2: not shown
light: B1 light
notes: as for B1
B12: GpH7-A5/GpH7-B3 variant P329_10E/GpL16-k0 (antibody, human IgG1, kappa)
heavy 1: not shown
heavy 2: not shown
light: B1 light
notes: as for B1
B13: GpH7-A5/GpH7-B3 variant P331_03V/GpL16-k0 (antibody, human IgG1, kappa)
heavy 1: not shown
heavy 2: not shown
light: B1 light
notes: as for B1
B14: GpH7-A5/GpH7-B3 variant P331_08L/GpL16-k0 (antibody, human IgG1, kappa)
heavy 1: not shown
heavy 2: not shown
light: B1 light
notes: as for B1

target: T4, FcγRIa extracellular domain, C-terminal His tag (human, UniProt P12314 16-292); assay: SPR (Biacore); binding relative to GpH7-A5/GpH7-B3/GpL16-k0 x100;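 further: antibodies captured on a chip surface, soluble FcγR flowed over in HBS-EP+ running buffer at 25 °C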
T4 construct: extracellular domain; also called 1a
T4 sequence (P12314 other isoform, or with tags, fused parts or gaps): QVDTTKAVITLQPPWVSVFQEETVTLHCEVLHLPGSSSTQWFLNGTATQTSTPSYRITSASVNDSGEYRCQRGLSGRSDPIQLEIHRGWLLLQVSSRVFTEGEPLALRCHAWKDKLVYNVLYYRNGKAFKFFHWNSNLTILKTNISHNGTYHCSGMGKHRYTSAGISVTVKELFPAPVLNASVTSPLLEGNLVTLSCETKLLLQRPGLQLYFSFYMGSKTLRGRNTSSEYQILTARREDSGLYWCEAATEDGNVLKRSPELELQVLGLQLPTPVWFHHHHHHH

Row | He/Con 1a | Binder
1 | 80.1% | B1
2 | 108% | B2
3 | 106% | B3
4 | 102% | B4
5 | 108% | B5
6 | 105% | B6
7 | 108% | B7
8 | 109% | B8
9 | 109% | B9
10 | 106% | B10
11 | 100% | B11
12 | 81.4% | B12
13 | 104% | B13
14 | 105% | B14

target: T1, FcγRIIb extracellular domain, …; assay: as above

Row | He/Con 2b | Binder
15 | 60.4% | B1
16 | 128% | B2
17 | 113% | B3
18 | 111% | B4
19 | 107% | B5
20 | 110% | B6
21 | 122% | B7
22 | 127% | B8
23 | 104% | B9
24 | 127% | B10
25 | 93.9% | B11
26 | 59.5% | B12
27 | 132% | B13
28 | 106% | B14

target: T2, FcγRIIa(H) extracellular domain, …; assay: as above

Row | He/Con 2aH | Binder
29 | 57.1% | B1
30 | 90.1% | B2
31 | 88.1% | B3
32 | 86.5% | B4
33 | 94% | B5
34 | 93.9% | B6
35 | 87.7% | B7
36 | 89% | B8
37 | 93.6% | B9
38 | 80.1% | B10
39 | 83.7% | B11
40 | 57.6% | B12
41 | 85.4% | B13
42 | 85.9% | B14

target: T3, FcγRIIa(R) extracellular domain, …; assay: as above

Row | He/Con 2aR | Binder
43 | 76% | B1
44 | 112% | B2
45 | 105% | B3
46 | 104% | B4
47 | 104% | B5
48 | 105% | B6
49 | 110% | B7
50 | 112% | B8
51 | 101% | B9
52 | 109% | B10
53 | 94.6% | B11
54 | 72.7% | B12
55 | 114% | B13
56 | 101% | B14

target: T5, FcγRIIIa extracellular domain, C-terminal His tag (human, UniProt P08637 17-208); assay: as above
T5 construct: extracellular domain; also called 3a
T5 sequence (P08637 other isoform, or with tags, fused parts or gaps): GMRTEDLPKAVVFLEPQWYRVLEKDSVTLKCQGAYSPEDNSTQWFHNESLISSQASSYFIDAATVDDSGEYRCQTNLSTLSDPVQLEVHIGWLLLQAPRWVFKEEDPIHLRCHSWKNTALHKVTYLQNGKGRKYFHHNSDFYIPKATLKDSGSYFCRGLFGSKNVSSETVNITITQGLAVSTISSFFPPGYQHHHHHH

Row | He/Con 3a | Binder
57 | 52.5% | B1
58 | 68.7% | B2
59 | 68.4% | B3
60 | 67.8% | B4
61 | 80.9% | B5
62 | 82.5% | B6
63 | 70.7% | B7
64 | 74.9% | B8
65 | 71.6% | B9
66 | 60.4% | B10
67 | 61.8% | B11
68 | 52.7% | B12
69 | 66.9% | B13
70 | 66% | B14
